Substrate: NCc1ccccc1
Experiment: purified protein
Type: biochemical, Homo sapiens
Conditions: 30 μM MAO-B [sic], 50 mM HEPES pH 7.5, 0.5% Triton X-100, 25 °C

B1: MAO-B (Homo sapiens) (protein)
chain: SNKCDVVVVGGGISGMAAAKLLHDSGLNVVVLEARDRVGGRTYTLRNQKVKYVDLGGSYVGPTQNRILRLAKELGLETYKVNEVERLIHHVKGKSYPFRGPFPPVWNPITYLDHNNFWRTMDDMGREIPSDAPWKAPLAEEWDNMTMKELLDKLCWTESAKQLATLFVNLCVTAETHEVSALWFLWYVKQCGGTTRIISTTNGGQERKFVGGSGQVSERIMDLLGDRVKLERPVIYIDQTRENVLVETLNHEMYEAKYVISAIPPTLGMKIHFNPPLPMMRNQMITRVPLGSVIKCIVYYKEPFWRKKDYCGTMIIDGEEAPVAYTLDDTKPEGNYAAIMGFILAHKARKLARLTKEERLKKLCELYAKVLGSLEALEPVHYEEKNWCEEQYSGGCYTTYFPPGILTQYGRVLRQPVDRIYFAGTETATHWSGYMEGAVEAGERAAREILHAMGKIPEDEIWQSEPESVDVPAQPITTTFLERHLPSVPGLLRLIGLTTIFSATALGFLAHKRGLLVRV
notes: FAD enzyme; PDB 2V5Z was only the docking model
  Km: 140 ± 30 µM

Source: publication PMC10952593, “Synthetic cannabinoid receptor agonists are monoamine oxidase‐A selective inhibitors” (The Febs Journal, 2023)
